Where two headings read alike, the source gives them in different places.
Columns and labels:
[1] = target: HuR123 (UniProt Q15717 1-306); experiment: SPR
[2] = target: T1, TIAR12 (UniProt Q01085 1-181); experiment: SPR
T1 sequence: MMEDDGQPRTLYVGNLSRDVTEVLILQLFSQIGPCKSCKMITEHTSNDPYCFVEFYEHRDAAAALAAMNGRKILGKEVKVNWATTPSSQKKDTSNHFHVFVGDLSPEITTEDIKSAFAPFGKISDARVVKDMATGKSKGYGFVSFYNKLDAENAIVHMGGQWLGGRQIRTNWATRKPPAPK

[3] = target: T2, TIAR123 (UniProt Q01085 1-283); experiment: SPR
T2 sequence: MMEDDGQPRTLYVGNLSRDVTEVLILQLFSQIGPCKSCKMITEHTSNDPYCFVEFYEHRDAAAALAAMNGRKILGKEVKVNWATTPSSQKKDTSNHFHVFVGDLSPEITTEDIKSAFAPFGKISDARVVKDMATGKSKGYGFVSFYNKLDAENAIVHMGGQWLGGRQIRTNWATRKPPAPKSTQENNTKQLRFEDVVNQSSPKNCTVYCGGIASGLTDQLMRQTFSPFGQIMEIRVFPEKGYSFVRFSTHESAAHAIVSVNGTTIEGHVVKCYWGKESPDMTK

[4] = target: HuR12 (UniProt Q15717 18-184); experiment: SPR
Chain of HuR12 (Q15717 18-184): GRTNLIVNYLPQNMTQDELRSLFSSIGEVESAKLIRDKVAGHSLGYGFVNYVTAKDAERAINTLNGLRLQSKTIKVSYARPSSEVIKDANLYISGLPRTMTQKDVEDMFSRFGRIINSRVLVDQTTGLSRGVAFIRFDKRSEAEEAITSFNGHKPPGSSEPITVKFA

[5] = target: T1, TIAR12; experiment: SPR; remark: listed apart in the source
[6] = target: T1, TIAR12; experiment: size exclusion chromatography

Chain of HuR123 (Q15717 1-306): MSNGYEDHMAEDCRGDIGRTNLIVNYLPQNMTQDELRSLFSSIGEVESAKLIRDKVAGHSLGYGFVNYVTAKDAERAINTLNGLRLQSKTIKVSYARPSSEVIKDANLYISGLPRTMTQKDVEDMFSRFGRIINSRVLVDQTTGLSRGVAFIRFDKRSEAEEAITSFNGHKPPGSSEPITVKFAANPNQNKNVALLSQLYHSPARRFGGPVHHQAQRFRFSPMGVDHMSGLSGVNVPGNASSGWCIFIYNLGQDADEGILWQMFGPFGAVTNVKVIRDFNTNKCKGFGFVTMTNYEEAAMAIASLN

B1: AU-rich RNA 28-mer (TNF-alpha ARE) (ssRNA)
RNA: GGGGGGUAUUUAUUAUUUAUUUAGGGGG
Kd [1]: 0.2 ± 0.007 nM
Kd [2]: 42.5 ± 0.63 nM
Kd [3]: 14.1 ± 0.22 nM
Kd [4]: 506 ± 13.1 nM

B2: U-rich DNA 20-mer (ssDNA)
DNA: UUUUUUUUUUUUUUUUUUUU
modifications: all deoxyuridine (2'-deoxy)
Kd [2]: 21.7 ± 0.38 nM
Kd [4]: 20600 ± 1570 nM

B3: U-rich RNA 28-mer (ssRNA)
RNA: GGGGGGUUUUUUUUUUUUUUUUUGGGGG
Kd [1]: 0.05 ± 0.001 nM

B4: T-rich DNA 20-mer (ssDNA)
DNA: TTTTTTTTTTTTTTTTTTTT
Kd [5]: 3.81 ± 0.74 nM
Kd [4]: 2640 ± 82.3 nM

B5: U-rich RNA 13-mer (ssRNA)
RNA: UUUUUUUUUUUUU
Kd [4]: 195 ± 6.3 nM

B6: U-rich RNA 8-mer (ssRNA)
RNA: UUUUUUUU
Kd [4]: 4700 ± 116 nM

B7: U-rich RNA 13-mer (solution) (ssRNA)
RNA: UUUUUUUUUUUUU
binding result [6]: binds

B8: U-rich RNA 17-mer (ssRNA)
RNA: UUUUUUUUUUUUUUUUU
Kd [4]: 40 ± 24 nM

Source: article PMC3035456
